Experimental data taken from US20190111032A1 (GEORGIA STATE UNIVERSITY RESEARCH FOUNDATION, published 2019).

Molecular target: the molecule itself
Experiment: size exclusion chromatography and non-reducing SDS-PAGE
Method: hCaSR-ECD (from residue Tyr²⁰ to Phe⁶¹²) (FIG. 1) was expressed in suspension culture of HEK293S (GnTI-) cells and purified from the culture medium by Ni²⁺-NTA chromatography as previously described. To deglycosylate the purified protein, hCaSR-ECD was incubated with recombinant endoglycosidase F1 (Endo F1) at a 1:100 mass ratio of Endo F1 to hCaSR-ECD²⁶ overnight at 4° C. in 10 mM Tris buffer, pH 7.4. Further separation of hCaSR-ECD from Endo F1 was achieved by size exclusion chromatography (SEC) in 10 mM HEPES (pH 7.3) buffer. hCaSR-ECD forms a homodimer, as determined by the elution volume observed in SEC.

B1: extracellular domain of the human calcium-sensing receptor (hCaSR-ECD), residues Tyr20 to Phe612 (receptor, UniProt P41180 20-612, looked up)
chain: YGPDQRAQKKGDIILGGLFPIHFGVAAKDQDLKSRPESVECIRYNFRGFRWLQAMIFAIEEINSSPALLPNLTLGYRIFDTCNTVSKALEATLSFVAQNKIDSLNLDEFCNCSEHIPSTIAVVGATGSGVSTAVANLLGLFYIPQVSYASSSRLLSNKNQFKSFLRTIPNDEHQATAMADIIEYFRWNWVGTIAADDDYGRPGIEKFREEAEERDICIDFSELISQYSDEEEIQHVVEVIQNSTAKVIVVFSSGPDLEPLIKEIVRRNITGKIWLASEAWASSSLIAMPQYFHVVGGTIGFALKAGQIPGFREFLKKVHPRKSVHNGFAKEFWEETFNCHLQEGAKGPLPVDTFLRGHEESGDRFSNSSTAFRPLCTGDENISSVETPYIDYTHLRISYNVYLAVYSIAHALQDIYTCLPGRGLFTNGSCADIKKVEAWQVLKHLRHLNFTNNMGEQVTFDECGDLVGNYSIINWHLSPEDGSIVFKEVGYYNVYAKKGERLFINEEKILWSGFSREVPFSNCSRDCLAGTRKGIIEGEPTCCFECVECPDGEYSDETDASACNKCPDDFWSNENHTSCIAKEIEFLSWTEPF
modifications: N-glycans trimmed with endoglycosidase F1 before SEC and crystallization (expressed in HEK293S GnTI- cells)
notes: range 20-612; This entry is one protomer; also called ECD of CaSR
- binding result: binds
